Measurements taken from patent US20030125296, “Insulin-responsive DNA binding protein-1 and methods to regulate insulin-responsive genes” (published 2003).

B1: IGFBP-3 IRE oligo (Example 7) (dsDNA)
DNA 1: AATTCAAGGGTATCCAGGAAAGTCTCCTTCAAG
DNA 2: CTTGAAGGAGACTTTCCTGGATACCCTTGAATT
B2: NFkB consensus (dsDNA)
DNA 1: GGGACTTTCCGGGACTTTCC
DNA 2: GGAAAGTCCCGGAAAGTCCC

Key:
[1] = target: T1, IRDBP-1 C-terminal 1503 bp coding region (Trx-IRDBP-1) (Rattus norvegicus, UniProt Q5ZQU0 SEQ:548-1047); test: EMSA; self-competed; supershifted by anti-IRDBP-1 cAb; printed probe sequence from Example 7; settings: tags: His6-thioredoxin fusion (pET-32a)
Text: (§1) This band was competed by the IGFBP-3 IRE, but not by the unrelated NFκB oligonucleotide (FIG. 26, left panel). In addition, the gel-shift band was supershifted with the anti-IRDBP-1 cAb antibody, but not with preimmune serum (FIG. 26, right panel).

[2] = target: T1, IRDBP-1 C-terminal 1503 bp coding …; test: competition; did not compete IGFBP-3 IRE band; settings: tags: His6-thioredoxin fusion (pET-32a)
Text: as §1

T1 sequence (Q5ZQU0 904-1403): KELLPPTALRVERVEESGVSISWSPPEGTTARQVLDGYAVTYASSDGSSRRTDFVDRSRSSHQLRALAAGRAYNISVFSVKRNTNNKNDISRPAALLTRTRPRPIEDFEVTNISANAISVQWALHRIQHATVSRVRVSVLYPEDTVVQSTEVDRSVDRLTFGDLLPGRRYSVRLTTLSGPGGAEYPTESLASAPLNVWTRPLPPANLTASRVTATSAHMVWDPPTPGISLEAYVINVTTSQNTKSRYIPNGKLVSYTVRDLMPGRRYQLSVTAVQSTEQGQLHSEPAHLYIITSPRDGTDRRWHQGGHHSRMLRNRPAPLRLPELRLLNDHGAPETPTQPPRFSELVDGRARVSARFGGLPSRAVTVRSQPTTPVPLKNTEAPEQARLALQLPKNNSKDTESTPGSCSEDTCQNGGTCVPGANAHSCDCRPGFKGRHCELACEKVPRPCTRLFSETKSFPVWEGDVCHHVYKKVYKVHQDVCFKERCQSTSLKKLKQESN

Row | Binder | binding result [1] | binding result [2]
1 | B1 | binds | –
2 | B2 | – | no binding
